Experimental findings from publication PMC3222871 are described below.

This data set concerns the target T1, human POT1 (human, UniProt Q9NUX5 1-634).
T1 sequence: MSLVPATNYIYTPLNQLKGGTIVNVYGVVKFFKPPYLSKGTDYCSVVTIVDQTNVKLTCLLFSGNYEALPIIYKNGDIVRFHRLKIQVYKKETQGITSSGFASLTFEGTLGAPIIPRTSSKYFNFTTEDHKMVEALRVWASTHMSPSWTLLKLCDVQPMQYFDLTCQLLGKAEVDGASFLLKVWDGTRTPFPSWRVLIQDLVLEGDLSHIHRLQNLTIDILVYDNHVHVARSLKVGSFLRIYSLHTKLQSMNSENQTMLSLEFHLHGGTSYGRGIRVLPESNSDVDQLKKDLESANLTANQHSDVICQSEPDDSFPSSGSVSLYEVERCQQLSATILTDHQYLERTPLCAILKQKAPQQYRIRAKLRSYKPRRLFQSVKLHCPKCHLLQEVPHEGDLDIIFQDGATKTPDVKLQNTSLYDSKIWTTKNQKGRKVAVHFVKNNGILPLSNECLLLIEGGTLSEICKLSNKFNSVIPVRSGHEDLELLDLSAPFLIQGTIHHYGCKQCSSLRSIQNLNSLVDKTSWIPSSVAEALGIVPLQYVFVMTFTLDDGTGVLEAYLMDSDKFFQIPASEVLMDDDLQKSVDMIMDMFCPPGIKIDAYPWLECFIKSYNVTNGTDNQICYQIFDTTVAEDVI
Nature of the data set: EMSA. In general terms: Mobility shift assays separate free from complexed probe on a gel.

TTTTTTTTTTTTTTTTTTTTTTTTTTTTTTTTTT (ssDNA) [dT34]: the binding result was “no binding”.
